Data reported in US20180094274A1 (BOARD OF TRUSTEES OF MICHIGAN STATE UNIVERSITY, published 2018).

T1: nYFP-AtWRI1 (Arabidopsis thaliana, UniProt Q6X5Y6 1-430)
T1 construct: BiFC construct transiently produced in N. benthamiana leaves; also called 35S:nYFP-AtWRI1; not shown: N-terminal half of YFP from the BiFC vector
T1 sequence: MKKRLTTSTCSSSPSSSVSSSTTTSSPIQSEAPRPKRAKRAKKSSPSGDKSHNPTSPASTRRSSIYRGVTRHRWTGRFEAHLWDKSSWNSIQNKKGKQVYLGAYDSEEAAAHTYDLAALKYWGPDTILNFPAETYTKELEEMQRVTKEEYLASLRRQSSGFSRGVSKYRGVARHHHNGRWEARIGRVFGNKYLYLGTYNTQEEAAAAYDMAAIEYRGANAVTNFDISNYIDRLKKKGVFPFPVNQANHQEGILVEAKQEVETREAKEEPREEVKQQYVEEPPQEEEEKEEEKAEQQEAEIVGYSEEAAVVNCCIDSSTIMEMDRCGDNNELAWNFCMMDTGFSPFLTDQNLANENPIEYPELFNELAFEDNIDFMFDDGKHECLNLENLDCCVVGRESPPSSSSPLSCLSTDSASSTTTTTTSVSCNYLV

T2: full length AtWRI1 (bait fusion, yeast two-hybrid) (Arabidopsis thaliana, UniProt Q6X5Y6 1-430)
T2 construct: Transcription factor expressed in yeast as bait fusion; also called Arabidopsis thaliana WRINKLED1; not shown: bait fusion partner of the Y2H vector
T2 sequence: T1 sequence

T3: BPM1 (yeast two-hybrid) (Arabidopsis, UniProt Q8L765 1-407)
T3 construct: also called E3 ligase bridge protein BPM1; E3 ligase linker BPM protein; not shown: Y2H fusion partner
T3 sequence (looked up): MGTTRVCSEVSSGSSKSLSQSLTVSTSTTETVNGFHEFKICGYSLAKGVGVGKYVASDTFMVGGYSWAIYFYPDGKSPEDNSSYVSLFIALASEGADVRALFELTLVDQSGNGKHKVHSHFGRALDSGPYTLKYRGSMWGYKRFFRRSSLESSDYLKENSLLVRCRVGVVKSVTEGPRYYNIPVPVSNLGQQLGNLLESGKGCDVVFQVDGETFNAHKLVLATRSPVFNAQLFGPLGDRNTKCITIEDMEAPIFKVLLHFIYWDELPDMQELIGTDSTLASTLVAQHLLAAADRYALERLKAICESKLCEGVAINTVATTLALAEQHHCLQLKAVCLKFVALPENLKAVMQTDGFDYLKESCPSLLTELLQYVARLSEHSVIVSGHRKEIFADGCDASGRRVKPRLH

B1: cYFP-BPM1 (other, Arabidopsis, UniProt Q8L765 1-407, looked up)
chain: T3 sequence (looked up)
notes: BiFC construct transiently produced in N. benthamiana leaves; also called 35S:cYFP-BPM1; BTB/POZ and MATH domain-containing (BPM) 1; not shown: C-terminal half of YFP from the BiFC vector
B2: 14-3-3ν (yeast two-hybrid) (other, Arabidopsis, UniProt Q96300 1-265, looked up)
chain: MSSSREENVYLAKLAEQAERYEEMVEFMEKVAKTVDTDELTVEERNLLSVAYKNVIGARRASWRIISSIEQKEESRGNDDHVSIIKDYRGKIETELSKICDGILNLLDSHLVPTASLAESKVFYLKMKGDYHRYLAEFKTGAERKEAAESTLVAYKSAQDIALADLAPTHPIRLGLALNFSVFYYEILNSPDRACSLAKQAFDEAISELDTLGEESYKDSTLIMQLLRDNLTLWNSDINDEAGGDEIKEASKHEPEEGKPAETGQ
notes: also called 14-3-3 nu; not shown: Y2H fusion partner
B3: AtWRI1^1-92 (yeast two-hybrid) (other)
chain: MKKRLTTSTCSSSPSSSVSSSTTTSSPIQSEAPRPKRAKRAKKSSPSGDKSHNPTSPASTRRSSIYRGVTRHRWTGRFEAHLWDKSSWNSIQ
notes: Truncated AtWRI1 variant; not shown: Y2H fusion partner
B4: nYFP-AtWRI1^1-366 (other)
chain: MKKRLTTSTCSSSPSSSVSSSTTTSSPIQSEAPRPKRAKRAKKSSPSGDKSHNPTSPASTRRSSIYRGVTRHRWTGRFEAHLWDKSSWNSIQNKKGKQVYLGAYDSEEAAAHTYDLAALKYWGPDTILNFPAETYTKELEEMQRVTKEEYLASLRRQSSGFSRGVSKYRGVARHHHNGRWEARIGRVFGNKYLYLGTYNTQEEAAAAYDMAAIEYRGANAVTNFDISNYIDRLKKKGVFPFPVNQANHQEGILVEAKQEVETREAKEEPREEVKQQYVEEPPQEEEEKEEEKAEQQEAEIVGYSEEAAVVNCCIDSSTIMEMDRCGDNNELAWNFCMMDTGFSPFLTDQNLANENPIEYPELFNEL
notes: also called AtWRI1^Δ367-430; not shown: N-terminal half of YFP from the BiFC vector
B5: AtWRI1^1-77 (yeast two-hybrid) (other)
chain: MKKRLTTSTCSSSPSSSVSSSTTTSSPIQSEAPRPKRAKRAKKSSPSGDKSHNPTSPASTRRSSIYRGVTRHRWTGR
notes: as for B3

Columns and labels:
nYFP-AtWRI1 = target: T1, nYFP-AtWRI1; test: BiFC, transient expression in N. benthamiana leaves
Excerpt: (§1) Confocal microscopy and bimolecular fluorescence complementation (BiFC) assays used 35S:YFP-AtWRI1 (including truncated AtWRI1 variants and AtWRI1 site-directed mutants fused to yellow fluorescent protein (YFP)) were generated through GATEWAY system. For BiFC experiments, 35S:nYFP-AtWRI1 (including truncated AtWRI1 variants) and 35S:cYFP-BPM1 were similarly assembled. Constructs were transformed into A. tumefaciens (GV3101 strain). For BiFC experiments to test protein-protein interaction, A. tumefaciens harboring each nYFP and cYFP fusion construct was prepared (each culture was re-suspended to 1.2 OD₆₀₀ in MMA buffer) and adjusted to 0.4 OD₆₀₀ prior to injection into plant leaves. Healthy leaves of N. benthamiana plants were infiltrated by bacterial suspensions with a 1-mL blunt-end syringe. Plants were returned to growth chambers and YFP fluorescence signals were captured by a confocal microscope 2 to 3 d after bacterial infiltration. YFP fluorescence signal intensity was analyzed using ImageJ software.
(§2) A bimolecular fluorescence complementation (BiFC) assay was used to investigate the interaction between AtWRI1 and a BPM protein (BPM1). AtWRI1 and BPM1 were subcloned to BiFC vectors which generated nYFP-AtWRI1 and cYFP-BPM1 (half N-terminus of YFP and half C-terminus of YFP, respectively). […]

[1] = target: T2, full length AtWRI1 (bait fusion, yeast …); test: yeast two-hybrid
BPM1 (yeast two-hybrid) [2] = target: T3, BPM1 (yeast two-hybrid); test: yeast two-hybrid with truncated AtWRI1 variants
cYFP-BPM1 = target: B1; test: BiFC, transient expression in N. benthamiana leaves
Excerpt: as §1, §2

BPM1 (yeast two-hybrid) [3] = target: T3, BPM1 (yeast two-hybrid); test: yeast two-hybrid

B1: binds (nYFP-AtWRI1).

B2: binds [1].

B3: binds (BPM1 (yeast two-hybrid) [2]).

B4: binds (cYFP-BPM1).

B5: no binding (BPM1 (yeast two-hybrid) [3]).
